Results on 4 molecules are retold here after US20140011978A1 (EPFL TTO, published 2014).

The chains are these.
B1: NT-3 (ligand, UniProt P20783 139-257, looked up)
chain: YAEHKSHRGEYSVCDSESLWVTDKSSAIDIRGHQVTVLGEIKTGNSPVKQYFYETRCKEARPVKNGCRGIDDKHWNSQCKTSQTYVRALTSENNKLVGWRWIRIDTSCVCALSRKIGRT
B2: Fg β1-66 (other)
fibrinogen Bβ chain fragment: QGVNDNEEGFFSARGHRPLDKKREEAPSLRPAPPPISGGGYRARPAKAAATQKKVERKAPDAGGCG
notes: production not given
B3: TNC III1-5 (other)
chain: EVSPPKDLVVTEVTEETVNLAWDNEMRVTEYLVVYTPTHEGGLEMQFRVPGDQTSTIIQELEPGVEYFIRVFAILENKKSIPVSARVATYLPAPEGLKFKSIKETSVEVEWDPLDIAFETWEIIFRNMNKEDEGEITKSLRRPETSYRQTGLAPGQEYEISLHIVKNNTRGPGLKRVTTTRLDAPSQIEVKDVTDTTALITWFKPLAEIDGIELTYGIKDVPGDRTTIDLTEDENQYSIGNLKPDTEYEVSLISRRGDMSSNPAKETFTTGLDAPRNLRRVSQTDNSITLEWRNGKAAIDSYRIKYAPISGGDHAEVDVPKSQQATTKTTLTGLRPGTEYGIGVSAVKEDKESNPATINAATELDTPKDLQVSETAETSLTLLWKTPLAKFDRYRLNYSLPTGQWVGVQLPRNTTSYVLRGLEPGQEYNVLLTAEKGRHKSKPARVKASTEQAGGGSHHHHHH
notes: The secreted protein in the assays lacks the leader; also called TG-TNC III1-5; engineered TNC III1-5
B4: PDGF-BB (ligand, UniProt P01127 82-190, looked up)
chain: SLGSLTIAEPAMIAECKTRTEVFEISRRLIDRTNANFLVWPPCVEVQRCSGCCNNRNVQCRPTQVQLRPVQVRKIEIVRKKPIFKKATVTLEDHLACKCETVAAARPVT
notes: The name implies a homodimer of B chains

The target in experiment [1] is B3. As to the kind of experiment: SPR, TNC III1-5 on the chip, cytokine injected, BSA reference channel. How it is done:
(§1) Surface plasmon resonance (SPR) was done to quantify the affinity of specific cytokines to TNC III1-5. […] Method: Surface plasmon resonance chips were functionalized with TNC III1-5 or BSA and cytokines were injected over the chips at different concentrations. The chips contained gold with free carboxyl groups that were activated to bind TNC III1-5 in one channel and BSA as a reference protein in another channel. The specific response of a cytokine to TNC III1-5 (in RU) was obtained relative to the response to BSA. Results are depicted in FIG. 5.
A general note: In SPR one partner is held on a chip, and binding of the other changes the refractive index at the surface.

In experiment [2] the target is B3. As to the kind of experiment: SPR: TNC III1-5 on the chip, BSA in the reference channel, cytokine injected at rising concentrations; Langmuir fit (legend paragraph 11 says TNC III5, Example 5 paragraph 115 says TNC III1-5). The method, then:
as §1

The target in the next experiment is T1, TGF-β3 (Natural form is a disulfide-linked homodimer; one protomer is given.).
T1 chain: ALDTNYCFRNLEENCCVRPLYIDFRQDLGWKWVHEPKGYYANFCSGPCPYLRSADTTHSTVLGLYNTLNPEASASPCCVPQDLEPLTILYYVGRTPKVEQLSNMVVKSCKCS
As to the kind of experiment: ELISA: growth factor coated, Fg fragment in solution, A450 (methods analogous to Example 3). How it is done:
(§2) ELISA plates were coated with cytokines or BSA and further incubated with TNC III1-5 to analyze binding of TNC III1-5 to a wide variety of cytokines. […] A large amount of heparin (4 μM) impaired binding of TNC III1-5 to these cytokines. Results are depicted in FIG. 3. Method: 50 nM of cytokine was coated for (1 hr, 37° C.). After blocking with 2% BSA (1 hr, RT). 100 nM TNC III1-5 was applied in PBST (0.05% tween, 0.1% bovine serum albumin (BSA)) (1 hr, RT). TNC III1-5 was detected with horseradish peroxidase (HRP)-anti-HIS in PBST (1 hr, RT) and developed with 3,3′,5,5′-tetramethylbenzidine (TMB), a soluble colorimetric HRP […]. Addition of sulfuric acid stop solution changes the color to yellow, enabling accurate measurement of the intensity at 450 nm using a spectrophotometer or plate reader. […] Heparin (4 μM) was added to TNC III1-5 to test the effect of blocking the heparin binding site of TNC III1-5, which has been defined as domain TNC III5 (Weber, Zimmermann, et al., 1995).
(§3) ELISA plates were coated with cytokines or BSA and further incubated with Fg β15-66 to analyze binding of […] to a wide variety of cytokines. […] Results are depicted in FIG. 4. Method: The methods were analogous to those used in Example 3.
(In general: ELISA stands for enzyme-linked immunosorbent assay.)

The target in another experiment is EGF. Described as above. The method, then: as §2, §3
The target of the next experiment is T2, PlGF-1 (UniProt P49763-2 19-149).
T2 sequence (looked up): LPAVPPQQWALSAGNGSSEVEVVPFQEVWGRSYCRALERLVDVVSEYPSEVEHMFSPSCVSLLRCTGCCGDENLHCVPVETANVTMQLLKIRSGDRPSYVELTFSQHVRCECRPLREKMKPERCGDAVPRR
The description is as above. The method, then: as §2, §3

The next experiment concerns the target T3, FGF-6 (UniProt P10767 38-208, limits assumed).
T3 sequence (looked up): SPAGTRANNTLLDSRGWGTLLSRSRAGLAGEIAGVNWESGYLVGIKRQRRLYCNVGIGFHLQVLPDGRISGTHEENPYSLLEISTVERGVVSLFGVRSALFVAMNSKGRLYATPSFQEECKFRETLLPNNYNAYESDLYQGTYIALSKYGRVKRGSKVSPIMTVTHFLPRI
The description is as above. The method, then: as §2, §3

Experiment [3] has as its target T4, BSA (bovine, UniProt P02769).
T4 construct: negative control; also called bovine serum albumin
Nature of the experiment: ELISA: BSA coated as control, Fg fragment in solution, A450 (methods analogous to Example 3). The method, then: as §2, §3

Experiment [4] addresses T4, BSA. Nature of the experiment: ELISA: PDGF-BB or BSA coated, TNC III1-5 in solution at 0 to 1.2 µM, A450. How it is done:
as §2, with “100 nM TNC III1-5 was applied in PBST (0.05% tween, 0.1% bovine serum albumin (BSA)) (1 hr, RT).” left out

The target in the next experiment is FGF-9. Nature of the experiment: ELISA: cytokine coated (50 nM), 100 nM TNC III1-5 in solution, HRP-anti-His, A450. How it is done:
as §2

Another experiment deals with HGF (UniProt P14210 32-728). As to the kind of experiment: ELISA: cytokine coated (50 nM), 100 nM TNC III1-5 in solution, HRP-anti-His, A450; black bars without, white bars with 4 µM heparin. The method, then: as §2
Sequence of HGF (P14210 32-728 limits assumed): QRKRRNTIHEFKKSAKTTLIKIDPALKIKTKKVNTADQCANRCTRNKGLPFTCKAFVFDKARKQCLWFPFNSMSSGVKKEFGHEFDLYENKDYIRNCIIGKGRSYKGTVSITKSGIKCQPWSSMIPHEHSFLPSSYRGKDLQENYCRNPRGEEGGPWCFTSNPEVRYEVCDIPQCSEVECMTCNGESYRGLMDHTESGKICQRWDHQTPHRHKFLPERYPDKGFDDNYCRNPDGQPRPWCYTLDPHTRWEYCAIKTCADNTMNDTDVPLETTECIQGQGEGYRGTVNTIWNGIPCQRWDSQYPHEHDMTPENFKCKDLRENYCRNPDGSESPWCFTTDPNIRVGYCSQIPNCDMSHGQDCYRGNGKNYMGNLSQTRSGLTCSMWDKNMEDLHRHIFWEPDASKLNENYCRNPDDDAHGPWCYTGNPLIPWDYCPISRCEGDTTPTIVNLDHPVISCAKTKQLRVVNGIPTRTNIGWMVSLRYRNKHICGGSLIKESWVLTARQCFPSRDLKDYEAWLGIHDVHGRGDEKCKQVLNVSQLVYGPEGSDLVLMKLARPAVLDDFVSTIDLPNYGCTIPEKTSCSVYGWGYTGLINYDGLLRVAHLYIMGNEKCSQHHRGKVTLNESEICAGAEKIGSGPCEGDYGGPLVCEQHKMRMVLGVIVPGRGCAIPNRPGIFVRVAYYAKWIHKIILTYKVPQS
In experiment [5] the target is T4, BSA. As to the kind of experiment: ELISA: GST-fused TNC domains, GST and BSA coated, 2 nM PDGF-BB in solution, anti-PDGF-BB antibody and HRP secondary, A450. How it is done:
An ELISA was performed to test the affinity of different domains present in TNC1-5 to PDGF-BB as an example cytokine that has shown to bind TNC III1-5. Domain TNC III5 was defined to be responsible for cytokine binding. Method: ELISA plates were coated with individual TNC domains fused to GST, as well as GST and BSA. Wells were blocked with BSA and then incubated with 2 nM PDGF-BB. Binding of PDGF-BB was detected using an anti-PDGF-BB antibody and then a secondary horseradish peroxidase conjugated antibody.

T4 sequence (P02769 25-607 limits assumed): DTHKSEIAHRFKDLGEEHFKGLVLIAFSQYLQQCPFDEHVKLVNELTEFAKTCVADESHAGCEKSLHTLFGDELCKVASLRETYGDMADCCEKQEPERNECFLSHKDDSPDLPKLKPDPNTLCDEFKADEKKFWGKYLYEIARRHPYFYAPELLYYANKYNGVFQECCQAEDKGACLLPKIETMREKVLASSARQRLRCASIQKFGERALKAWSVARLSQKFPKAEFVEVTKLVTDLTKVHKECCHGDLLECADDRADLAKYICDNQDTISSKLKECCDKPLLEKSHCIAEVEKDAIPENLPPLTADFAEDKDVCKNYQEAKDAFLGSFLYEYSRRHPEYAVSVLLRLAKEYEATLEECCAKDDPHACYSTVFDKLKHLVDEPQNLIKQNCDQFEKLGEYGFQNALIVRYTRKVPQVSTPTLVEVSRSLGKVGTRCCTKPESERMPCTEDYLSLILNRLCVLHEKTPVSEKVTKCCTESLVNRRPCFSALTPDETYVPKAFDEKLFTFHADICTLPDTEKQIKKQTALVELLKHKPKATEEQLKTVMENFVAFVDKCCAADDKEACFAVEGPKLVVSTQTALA

With B1, the Kd (usually the concentration at which binding is half-saturated) with TNC III1-5 [1] came to 21 nM. Besides, in the experiment with TNC III1-5 [2], the koff (as a rule, a measure of how fast the partners let go of each other) was determined as 0.00106 s⁻¹ and the kon (as a rule, the second-order rate constant of association) was found to be 50700 M⁻¹ s⁻¹.
For B2, the binding result with TGF-β3, with EGF, in the experiment with PlGF-1, in the experiment with FGF-6 and in the experiment with BSA [3] was “no binding” in each case.
With B3, the binding result with BSA [4] is “no binding (tested: 1.2 µM)”; with FGF-9, “no binding (tested: 100 nM)”; with HGF, “binds”.
The molecule B4 had a Kd in the experiment with TNC III1-5 [1] of 3.9 nM. For the same molecule, in the experiment with BSA [5], the binding result is recorded as “no binding (tested: 2 nM PDGF-BB)”. Besides, in the experiment with TNC III1-5 [2], the koff was 0.0202 s⁻¹ and the kon was 5.23e+06 M⁻¹ s⁻¹.
